System: O=CCCC=O
Assay: Alcohol dehydrogenase YqhD, coupled assay, NADPH consumption
Type: biochemical, E. coli
Conditions: other: coupled assay, substrate from 0.1-10 mM L-arabonate, 1 mM NADPH, pH 7.5, 10 nM YqhD, 30.0 °C
Procedure: 2-Ketoacid decarboxylase (Kivd) and alcohol dehydrogenase (YqhD): The decarboxylase activity of Kivd was measured by a coupled enzymatic assay with AraC, AraD, and YqhD (Zhang et al., 2011. ChemSusChem 4:1068-1070). Excess AraC, AraD, and YqhD was used and the oxidation of NADPH was monitored at 340 nm. The assay mixture contained 1 mM NADPH, 1 μM AraC, 1 μM AraD, and 100 nM YqhD and 0.1-10 mM L-arabonate in assay buffer (100 mM Tris-HCl buffer, pH 7.5, 5 mM MgSO4, 0.5 mM ThDP) with a total volume of 0.1 ml. The mixture was incubated at 30° C. for one hour and 10 nM Kivd was added. The dehydrogenase activity of YqhD was assayed according to NADPH initial consumption rates in a coupled assay. The assay mixture contained 1 mM NADPH, 100 nM Kivd, 1 μM AraC, 1 μM AraD, and 0.1-10 mM L-arabonate in 100 μl of 100 mM Tris-HCl buffer (pH 7.5) with 5 mM MgSO4. The mixture was first incubated at 30° C. for one hour. Afterwards, 10 nM YqhD was added and the NADPH consumption rate was monitored.

E. coli alcohol dehydrogenase YqhD (Escherichia coli K-12)
Km: 1900 µM | kcat: 45.0 s⁻¹

— patent publication US20170137855A1, “RECOMBINANT CELLS AND METHODS FOR NONPHOSPHORYLATIVE METABOLISM” (REGENTS OF THE UNIVERSITY OF MINNESOTA, priority 2015, published 2017)
